Patent US20210139548A1 (published 2021)
*1 amine or outer side, *2 acyl side, *3 side chain or, on linkers, in order; H or OH if unused. Side-chain parts run from the residue outwards. The star is where a group is joined. C18 diacid = O=C(O)CCCCCCCCCCCCCCCCC(=O)*; γGlu = O=C(O)[C@H](CCC(=O)[*:2])N[*:1]; Isovaleryl = CC(C)CC(=O)*; AEEA = NCCOCCOCC(=O)O

T1: human neuropeptide Y2 receptor (human, UniProt P49146 1-381)
T1 construct: whole, on cells; also called hNPY2 receptor; hNPY2-R
T1 sequence (looked up): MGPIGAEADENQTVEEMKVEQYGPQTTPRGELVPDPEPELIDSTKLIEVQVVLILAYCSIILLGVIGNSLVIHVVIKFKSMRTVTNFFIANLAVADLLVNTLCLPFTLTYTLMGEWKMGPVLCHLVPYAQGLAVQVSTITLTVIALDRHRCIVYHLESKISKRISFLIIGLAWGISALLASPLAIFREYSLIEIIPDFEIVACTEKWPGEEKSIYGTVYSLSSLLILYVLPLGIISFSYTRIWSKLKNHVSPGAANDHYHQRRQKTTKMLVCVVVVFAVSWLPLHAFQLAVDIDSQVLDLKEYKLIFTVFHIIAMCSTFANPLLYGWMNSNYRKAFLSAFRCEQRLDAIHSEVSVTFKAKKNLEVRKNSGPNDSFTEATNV

B1: Compound 28 (peptide)
peptide: Isovaleryl-APEK([AEEA-AEEA-γGlu-C18 diacid])PEEDTSPEELQRYYVELRHYYNWLTRQRY-NH2
SMILES: CC(C)CC(=O)N[C@@H](C)C(=O)N1CCC[C@H]1C(=O)N[C@@H](CCC(=O)O)C(=O)N[C@@H](CCCCNC(=O)COCCOCCNC(=O)COCCOCCNC(=O)CC[C@H](NC(=O)CCCCCCCCCCCCCCCCC(=O)O)C(=O)O)C(=O)N1CCC[C@H]1C(=O)N[C@@H](CCC(=O)O)C(=O)N[C@@H](CCC(=O)O)C(=O)N[C@@H](CC(=O)O)C(=O)N[C@H](C(=O)N[C@@H](CO)C(=O)N1CCC[C@H]1C(=O)N[C@@H](CCC(=O)O)C(=O)N[C@@H](CCC(=O)O)C(=O)N[C@@H](CC(C)C)C(=O)N[C@@H](CCC(N)=O)C(=O)N[C@@H](CCCNC(=N)N)C(=O)N[C@@H](Cc1ccc(O)cc1)C(=O)N[C@@H](Cc1ccc(O)cc1)C(=O)N[C@H](C(=O)N[C@@H](CCC(=O)O)C(=O)N[C@@H](CC(C)C)C(=O)N[C@@H](CCCNC(=N)N)C(=O)N[C@@H](Cc1c[nH]cn1)C(=O)N[C@@H](Cc1ccc(O)cc1)C(=O)N[C@@H](Cc1ccc(O)cc1)C(=O)N[C@@H](CC(N)=O)C(=O)N[C@@H](Cc1c[nH]c2ccccc12)C(=O)N[C@@H](CC(C)C)C(=O)N[C@H](C(=O)N[C@@H](CCCNC(=N)N)C(=O)N[C@@H](CCC(N)=O)C(=O)N[C@@H](CCCNC(=N)N)C(=O)N[C@@H](Cc1ccc(O)cc1)C(N)=O)[C@@H](C)O)C(C)C)[C@@H](C)O
B2: Compound 32 (peptide)
peptide: Isovaleryl-APEK([AEEA-AEEA-γGlu-C18 diacid])PEEDTSPEELQRYEVSLRHYYNWLTRQRY-NH2
SMILES: CC(C)CC(=O)N[C@@H](C)C(=O)N1CCC[C@H]1C(=O)N[C@@H](CCC(=O)O)C(=O)N[C@@H](CCCCNC(=O)COCCOCCNC(=O)COCCOCCNC(=O)CC[C@H](NC(=O)CCCCCCCCCCCCCCCCC(=O)O)C(=O)O)C(=O)N1CCC[C@H]1C(=O)N[C@@H](CCC(=O)O)C(=O)N[C@@H](CCC(=O)O)C(=O)N[C@@H](CC(=O)O)C(=O)N[C@H](C(=O)N[C@@H](CO)C(=O)N1CCC[C@H]1C(=O)N[C@@H](CCC(=O)O)C(=O)N[C@@H](CCC(=O)O)C(=O)N[C@@H](CC(C)C)C(=O)N[C@@H](CCC(N)=O)C(=O)N[C@@H](CCCNC(=N)N)C(=O)N[C@@H](Cc1ccc(O)cc1)C(=O)N[C@@H](CCC(=O)O)C(=O)N[C@H](C(=O)N[C@@H](CO)C(=O)N[C@@H](CC(C)C)C(=O)N[C@@H](CCCNC(=N)N)C(=O)N[C@@H](Cc1c[nH]cn1)C(=O)N[C@@H](Cc1ccc(O)cc1)C(=O)N[C@@H](Cc1ccc(O)cc1)C(=O)N[C@@H](CC(N)=O)C(=O)N[C@@H](Cc1c[nH]c2ccccc12)C(=O)N[C@@H](CC(C)C)C(=O)N[C@H](C(=O)N[C@@H](CCCNC(=N)N)C(=O)N[C@@H](CCC(N)=O)C(=O)N[C@@H](CCCNC(=N)N)C(=O)N[C@@H](Cc1ccc(O)cc1)C(N)=O)[C@@H](C)O)C(C)C)[C@@H](C)O
B3: Compound 33 (peptide)
peptide: Isovaleryl-APEK([AEEA-AEEA-γGlu-C18 diacid])PEEPASPEELQRYYVELRHYYNWLTRQRY-NH2
SMILES: CC(C)CC(=O)N[C@@H](C)C(=O)N1CCC[C@H]1C(=O)N[C@@H](CCC(=O)O)C(=O)N[C@@H](CCCCNC(=O)COCCOCCNC(=O)COCCOCCNC(=O)CC[C@H](NC(=O)CCCCCCCCCCCCCCCCC(=O)O)C(=O)O)C(=O)N1CCC[C@H]1C(=O)N[C@@H](CCC(=O)O)C(=O)N[C@@H](CCC(=O)O)C(=O)N1CCC[C@H]1C(=O)N[C@@H](C)C(=O)N[C@@H](CO)C(=O)N1CCC[C@H]1C(=O)N[C@@H](CCC(=O)O)C(=O)N[C@@H](CCC(=O)O)C(=O)N[C@@H](CC(C)C)C(=O)N[C@@H](CCC(N)=O)C(=O)N[C@@H](CCCNC(=N)N)C(=O)N[C@@H](Cc1ccc(O)cc1)C(=O)N[C@@H](Cc1ccc(O)cc1)C(=O)N[C@H](C(=O)N[C@@H](CCC(=O)O)C(=O)N[C@@H](CC(C)C)C(=O)N[C@@H](CCCNC(=N)N)C(=O)N[C@@H](Cc1c[nH]cn1)C(=O)N[C@@H](Cc1ccc(O)cc1)C(=O)N[C@@H](Cc1ccc(O)cc1)C(=O)N[C@@H](CC(N)=O)C(=O)N[C@@H](Cc1c[nH]c2ccccc12)C(=O)N[C@@H](CC(C)C)C(=O)N[C@H](C(=O)N[C@@H](CCCNC(=N)N)C(=O)N[C@@H](CCC(N)=O)C(=O)N[C@@H](CCCNC(=N)N)C(=O)N[C@@H](Cc1ccc(O)cc1)C(N)=O)[C@@H](C)O)C(C)C
B4: Compound 34 (peptide)
peptide: Isovaleryl-APEK([AEEA-AEEA-γGlu-C18 diacid])PEEDASPEELQRYYVSTRHYYNWLTRQRY-NH2
SMILES: CC(C)CC(=O)N[C@@H](C)C(=O)N1CCC[C@H]1C(=O)N[C@@H](CCC(=O)O)C(=O)N[C@@H](CCCCNC(=O)COCCOCCNC(=O)COCCOCCNC(=O)CC[C@H](NC(=O)CCCCCCCCCCCCCCCCC(=O)O)C(=O)O)C(=O)N1CCC[C@H]1C(=O)N[C@@H](CCC(=O)O)C(=O)N[C@@H](CCC(=O)O)C(=O)N[C@@H](CC(=O)O)C(=O)N[C@@H](C)C(=O)N[C@@H](CO)C(=O)N1CCC[C@H]1C(=O)N[C@@H](CCC(=O)O)C(=O)N[C@@H](CCC(=O)O)C(=O)N[C@@H](CC(C)C)C(=O)N[C@@H](CCC(N)=O)C(=O)N[C@@H](CCCNC(=N)N)C(=O)N[C@@H](Cc1ccc(O)cc1)C(=O)N[C@@H](Cc1ccc(O)cc1)C(=O)N[C@H](C(=O)N[C@@H](CO)C(=O)N[C@H](C(=O)N[C@@H](CCCNC(=N)N)C(=O)N[C@@H](Cc1c[nH]cn1)C(=O)N[C@@H](Cc1ccc(O)cc1)C(=O)N[C@@H](Cc1ccc(O)cc1)C(=O)N[C@@H](CC(N)=O)C(=O)N[C@@H](Cc1c[nH]c2ccccc12)C(=O)N[C@@H](CC(C)C)C(=O)N[C@H](C(=O)N[C@@H](CCCNC(=N)N)C(=O)N[C@@H](CCC(N)=O)C(=O)N[C@@H](CCCNC(=N)N)C(=O)N[C@@H](Cc1ccc(O)cc1)C(N)=O)[C@@H](C)O)[C@@H](C)O)C(C)C
B5: Compound 35 (peptide)
peptide: Isovaleryl-APEK([AEEA-AEEA-γGlu-C18 diacid])PEEDAAPEETQRYYVSLRHYYNWLTRQRY-NH2
SMILES: CC(C)CC(=O)N[C@@H](C)C(=O)N1CCC[C@H]1C(=O)N[C@@H](CCC(=O)O)C(=O)N[C@@H](CCCCNC(=O)COCCOCCNC(=O)COCCOCCNC(=O)CC[C@H](NC(=O)CCCCCCCCCCCCCCCCC(=O)O)C(=O)O)C(=O)N1CCC[C@H]1C(=O)N[C@@H](CCC(=O)O)C(=O)N[C@@H](CCC(=O)O)C(=O)N[C@@H](CC(=O)O)C(=O)N[C@@H](C)C(=O)N[C@@H](C)C(=O)N1CCC[C@H]1C(=O)N[C@@H](CCC(=O)O)C(=O)N[C@@H](CCC(=O)O)C(=O)N[C@H](C(=O)N[C@@H](CCC(N)=O)C(=O)N[C@@H](CCCNC(=N)N)C(=O)N[C@@H](Cc1ccc(O)cc1)C(=O)N[C@@H](Cc1ccc(O)cc1)C(=O)N[C@H](C(=O)N[C@@H](CO)C(=O)N[C@@H](CC(C)C)C(=O)N[C@@H](CCCNC(=N)N)C(=O)N[C@@H](Cc1c[nH]cn1)C(=O)N[C@@H](Cc1ccc(O)cc1)C(=O)N[C@@H](Cc1ccc(O)cc1)C(=O)N[C@@H](CC(N)=O)C(=O)N[C@@H](Cc1c[nH]c2ccccc12)C(=O)N[C@@H](CC(C)C)C(=O)N[C@H](C(=O)N[C@@H](CCCNC(=N)N)C(=O)N[C@@H](CCC(N)=O)C(=O)N[C@@H](CCCNC(=N)N)C(=O)N[C@@H](Cc1ccc(O)cc1)C(N)=O)[C@@H](C)O)C(C)C)[C@@H](C)O
B6: Compound 36 (peptide)
peptide: Isovaleryl-APEK([AEEA-AEEA-γGlu-C18 diacid])AEEDAEPEELQRYYVSLRHYYNWLTRQRY-NH2
SMILES: CC(C)CC(=O)N[C@@H](C)C(=O)N1CCC[C@H]1C(=O)N[C@@H](CCC(=O)O)C(=O)N[C@@H](CCCCNC(=O)COCCOCCNC(=O)COCCOCCNC(=O)CC[C@H](NC(=O)CCCCCCCCCCCCCCCCC(=O)O)C(=O)O)C(=O)N[C@@H](C)C(=O)N[C@@H](CCC(=O)O)C(=O)N[C@@H](CCC(=O)O)C(=O)N[C@@H](CC(=O)O)C(=O)N[C@@H](C)C(=O)N[C@@H](CCC(=O)O)C(=O)N1CCC[C@H]1C(=O)N[C@@H](CCC(=O)O)C(=O)N[C@@H](CCC(=O)O)C(=O)N[C@@H](CC(C)C)C(=O)N[C@@H](CCC(N)=O)C(=O)N[C@@H](CCCNC(=N)N)C(=O)N[C@@H](Cc1ccc(O)cc1)C(=O)N[C@@H](Cc1ccc(O)cc1)C(=O)N[C@H](C(=O)N[C@@H](CO)C(=O)N[C@@H](CC(C)C)C(=O)N[C@@H](CCCNC(=N)N)C(=O)N[C@@H](Cc1c[nH]cn1)C(=O)N[C@@H](Cc1ccc(O)cc1)C(=O)N[C@@H](Cc1ccc(O)cc1)C(=O)N[C@@H](CC(N)=O)C(=O)N[C@@H](Cc1c[nH]c2ccccc12)C(=O)N[C@@H](CC(C)C)C(=O)N[C@H](C(=O)N[C@@H](CCCNC(=N)N)C(=O)N[C@@H](CCC(N)=O)C(=O)N[C@@H](CCCNC(=N)N)C(=O)N[C@@H](Cc1ccc(O)cc1)C(N)=O)[C@@H](C)O)C(C)C

target: T1, human neuropeptide Y2 receptor; experiment: radioligand competition (125I-PYY(1-36)), hNPY2R membranes
Outline: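 Commercial human Y2 receptor membranes (0.5 μg protein/well) were incubated with peptide for 2 h at room temperature in 50 mM HEPES, 5 mM MgCl₂, 1 mM CaCl₂, pH 7.4, with 0.2% ovalbumin. Bound radioligand was separated on PEI-soaked GF/C filters and counted by scintillation, and IC₅₀ came from nonlinear sigmoidal regression.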

Row | Binder | Ki
1 | B1 | 6.03 nM
2 | B2 | 4.84 nM
3 | B3 | 0.45 nM
4 | B4 | 6.4 nM
5 | B5 | 1.21 nM
6 | B6 | 10.6 nM
